Assay: label from the status in PepcDB records

MSLGRKQQYGTLASIAAKLGISRTTVSNAYNRPEQLSAELRQRILDTAEDMGYLGPDPVARSLRTRRAGAIGVLLTEDLTYAFEDMASVDFLAGVAQAAGDTQLTLIPASPASSVDHVSAQQLVNNAAVDGVVIYSVAKGDPHIDAIRARGLPAVIADQPAREEGMPFIAPNNRKAIAPAAQALIDAGHRKIGILSIRLDRANNDGEVTRERLENAQYQVQRDRVRGAMEVFIEAGIDPGTVPIMECWINNRQHNFEVAKELLETHPDLTAVLCTVDALAFGVLEYLKSVGKSAPADLSLTGFDGTHMALARDLTTVIQPNKLKGFKAGETLLKMIDKEYVEPEVELETSFHPGSTVAEGHHHHHH
protein production: not failed

MAHGMPTQGKVTISVDEYSSNPTQALTHYNINQSRFQPPHVHMVDPISYDTPKPGGHTRFVCVSDTHSRTDGIQMPYGDVLLHTGDFTELGLPSEVKKFNDWLGSLPYEFKVVIAGNHELTFDKDFMTELVKQDYYRFPSVSKLKPKDFDNVQSLLTNCVYLQDSDVTVKGFRIYGTPWTPWFNGWGFNLPRGQSLLDKWNLIPEGVDILMTHGPPLGFRDWVPKELQRVGCVELLNTVQRRVRPKLHVFGGIHEGYGIMTDGYTTFINASTCTVSFQPTNPPIVFDLPNPTSS
protein production: failed

MIIPVRRFTPNAYIMRILVSIIVFLCIGWIGRVTELEENFITQNKPVEVGTFVTFTINIPDGSEIPYVAWDFGDGSGLGRYRKSLSVSYTFTEPGVYQVYARIQGEDFPLTVIQTVYKPTQKPAPAHSSTIVIDTVHQKVWAVNTDNNSVAYIDALNNTLLSEIPVGKQPRTVALDKDGNAWVANEEDASISVIAAATGQVLQTIILPYASRPYGICFDPQKDFCYVTLQGTGELVKIEAIGREIVESVHVGRSPRGIAVTSDGSQMLVTQFISPEENGLVRLIDTKTMHVQQEIVLAFDVTPDFEDRGRGVPNFLSSITITPDGTEAWVPSKKDNTARGMFRDGLALEFDNTVRTIVSRIDLSTMTENSQMRTDINDADMACAVEFSPYGNIAFVALQGVNKITMIDVASNSRLGLLDSTGLAPQGLVINADGSRLFVHNFLTRTVKVFNTEDIVLSNNFTPVVAATISTIITEKLAPQVLEGKQIFYNAADERMTFAGYISCASCHLDGASDERVWDFTDRGEGFRNTHSLLGRGGMDMGNVHWTSNFDEIQDFENDMRNGFKGKGFLPDAVFALVSDPLGNPKAGLSRELDALAAYVTSLNKVHASPYRNNDGSLTADGIEGEILFQELGCGSCHAGQDFTDRKTGVLHDVGTEQPSSGERRTLALTGFGTPTLKGIWETAPYLHDGSALTLKDVLVTRNAEKKHGDLSNLTETELDKLVAYLLQIDDNQDAVITALLFPIKREFVAMRIFPNPASESANVQLTNIVKSSGTIRIYNVIGHLLMTVLVEGMNEINLDVSQLNSGVYVVEYSDDTSKYSQKMVIQ
protein production: failed

LIIFCLLSVVAAAAYFSFSHWAIRHETLTFFDESRGRPVAIDLAVRRDAEMKAEAGMVTLPVAVVSHGNTVKNTEYSFLANVLAARGYLVASIQHDLPDDKPLMTVAGSLYVGRLAVYERGEKNIFFALKELKKLEPNADYDHLTLVGHSNGGDISMFFAQQHPEMVRRVVTLD
protein production: failed

MKYAIREYKGKNVDLSKLSSIIENYFREENFVTQSSQHPRGYVIQAKKGGIFRTILGMDRAFTIVLVGDSSDFKVQIGVGKWLQDLGVAAIEAFLITPVVAFVEVPESLWSFELEHEFWQFLENQINLGIQ
protein production: failed

MSAQDTQSLGVWSDCLTLLRLELLRAVPKSAVGLGCGKKIHANGILDEIFFPLDISIASAYVKTKMNFNPPTLQHLAGRSLMKDEALAISALQDLPMQLFPPLFKDAFTSKQSNILKQMVAAWPFPCLPVGGLMETPPHLETLKAVLDGLDLLMKQKVRLRMWKLQVLDLRDAHHDFWKGYTGIQDLVSSLDVIGKTQPVGNHPIIGGKQVMTVLMNLSFTSRHPSKYIKYLCHWAKQRKNVIQVICQKLEFGAIPAYDSLNVLGVFDLGSIQELEINKCWDMCTLALLAPGLGQMKNLQKLLLKEICITVDWPWDQKTEGLCVKQIFFQFSKLRNLQHLYLNDVYFLNEHLDQVLRCLESPLETLAITHCMLSQSDMKYLSQCPSIHQLKHLDLSGVTFINLSHPFLRSLLERVTATLKTLKLNGCMIMDFQIRALLPVLSQCSQLTEVNFEENSLSMDSLKKLLQHTANLTHLTLEKYPAPDEVYDDTGNVIPHRFIQLCSELMDTLKILRQPNHVYFVSKKCLDCHKYFIYNLEAMLCSCWQ
protein production: failed

MWHYLFLAIYVTMIIGIATVTKKRIKGVSDFLLGGRNVNPWMSAFSYGTAYFSAVIFIGFAGKMGWSFGIPTMWIVVGNTIIGSFLAWQVLGKKTREMTQRLGASTMPSFLEKRYKSKNLESLTAFIIFFFLVPYSASIYKGLNFLFEGFGISPMNAYILMAALTAIYLYFGGFIAATLADFVQGCIMVIGVLLMVFFLSSNPEVGGFSGMLSNLSSIDPILVSPISEASFIPIIGLALLTSIGSWGLPQMIHKFYTIKSEKAAVSAKWVSTAFAFIITFGAAYIGTVSRLFYPDAASKVAAGLTSPDMIVPKIMEIALPDWVAALILVLVISASMSTLASLVLASSSVVSIDFVKGRLKPDLSDKNTMILMRLLCVLFVALSFVLAIVPNSYVLSLMALSWGLVSGCLLAPYFLGLYWKRTTKEGVWAGITSALAIMLGGACYFGVNSVYMPAVGSLAMIAPIFVVMAVSLITKPFESEHIDYIFNKK
protein production: failed

MREYNNPSDFKSFHDFVASYMKTYSRRLEIGTFRHHKSCMRKFKEYCEGLQFHELTEDFLRDYLIYMKKTLCNADSTAQRNLSTIKIYVSAAIKKGYMENDPFKDFGVKRLEHHHHHH
protein production: not failed

HRSDPQIAICLDCLRNNGQSGDNVVKGLMKKFIRCSTRVTVGTIKKFLSLKLKLPSSYELDVLCNGEIMGKDHTMEFIYMTRWRLRGENFRCLNCSASQVCSQDGPLYQSYPMVLQYR
protein production: failed

MFGAKKNNTKIIEQLEKKCNGLGDILRSIGNTMAVIEFTTDGVILEANQNFLTTMKYSLSEIKGKHHSMFCLPEVVNSSAYSDFWKDLRDGKARSGLFRRIAKGGIDVYLEANYLPISDNNGYVYKIIKFANDITQRHYEMLDLRNTIAAANRSMAIIEFKPDGTIITANENFLRAMDFNIDEIKGKHHSMFCDSNYRHSKDYVQFWEDLREGKFQSGKYIRYGRNNKKVYLEASYNPVKNDDGKIYKVIKFATDISEQVKKDQEKLRLISELAEKNDNLTQDGDRVIENTVSNVQNIADMMSQSSNLVSSLNQQSDEIKSIIQTISDIADQTNLLALNAAIEAARAGEHGRGFAVVADEVRNLAERTGHSVNEITTTINSIRNVTSQVVESIKSGLEDVNQSVELAKEARECMEKIRESSAEVAKAMS
protein production: failed

MMKMMTRVLSSPSSHVSSLKYSPRRVIRASRDHLRAETLKSHQLPSGSSSTSLCSCGRKHFLEAASPTMPFLPICSPNASRSKDVSETFHPQRPDWYKELFAWFLSTGMRSYEAEVSLCDLNASFYDPFLENDRSFSCFMFVLFGKIAEYKRKLFEKLAGKAETVLEIGVGTGPNLKYFAGNENVCVFGMDPNHKMEKYACESAREAGMKPENFRFMHGVSKLLCFDL
protein production: failed

MNFEAIKSIYLFEMARTRRTLLQSVVSPVISTSLYFIVFGTAIGSRIQEVGGVSYGAFITPGLIMLTLLTQCISNGSFGIYFPKFTGTVYEILSAPVSMTEIVAGYVGAAATKGLMIGTIILITASFFVDITIAHPFMMVLFFVLTAVSFSLFGFIIGIWATNFEQLNLIPMLVVPPLTFLGGSFYSIDMLPPFWQTVSHFNPVLYLISGFRWSFYEIADVNPVISLAMITLFLAVCLGVVAWMFKTGYRLRN
protein production: failed

MSDLAMANPAPERTVMQHVRPLPYEADFTGFLSNTVAPRWMEALRIQRMRTCFPHFDSGAPQHLCIITETTVRYRKPVRYSDAIVGKAWLQSARYSRWIIAFSFAFEFSGLPAFEGRQAGTFIDPQTHLPLPIPASLRLPADH
protein production: failed

MKEFRKILEDKAFFFTTLYILISFLVFKIFPDVFAVIVLMVFFTLLLDPVIRFLEKLKFGKYFSRVAALLLFFFVMVYSLYMIIPPVFNEFGSFIEFMTKVFESKIWKDYIKSPELMPVFDKIMNFLEPKLTDFLNYVFSLVTTNFVSVTTIIVFTLFGLGYTVFYIREIASFFVLIYPKSVRAEAREFFRDVYASMGRYIRVIFINAVIIGLSYWIVFEAFNLKYSAIISLWAFVTNFIPIVGVVLEYIPVLLFSLTLGVKGVLLIALFAILIHAVAFVVFIQLMKGLEKLNPVYIILSILFFGKLFGLFGSFVGVPLALFFKVFWRKFLRPLFEAG
protein production: failed

IPTCKITLKETFLTSPEELYRVFTTQELVQAFTHAPATLEADRGGKFHMVDGNVSGEFTDLVPEKHIVMKWRFKSWPEGHFATITLTFIDKNGETELCMEGRGIPAPEEERTRQGWQRYYFEGIKQTFGYGA
protein production: not failed

MTFGSLFRNQTRTVVKGHIFNLPNSLSILRILLIPWFIYYLDAGQTHIALIIMVVALLSDWFDGQMARWTNEVSDMGKILDPLADKLCLASVALYYLWKGELPVWFVVFVVFRDLVIFLGAAWIRHRHNVLTTSLWPGKWAVGFVSMMFISMVWPLPVFRQWPVKEFFMYLSAATLFYSFVEYCIRFYKIQKGAEFKA
protein production: failed

MPRYPVRPADHAQSAEGGVTAVDRALTLLTAFRVTDQTLSLSELSERASLVPSTVLRLLASLMHFGFVLRRPDGRYALGPAAARLNRVYAASFNLQDVVLPALQELVGQTRESASFHVRQGAHRLVLYRVSSPQPLSDQSHTGDLLPLDRGTGGHVLMAFSDTPGEFYEALRLRGYMASPVSDRSPELAGISAPVFDAQGMLAGALTLTMPVHRYKDAHIPVLREAAARLSAALGA
protein production: failed

KQAEMEVKRESYARERSTVARIQFRLPDGSSFTNQFPSDAPLEEARQFAAQTVGNTYGNFSLATMFPRREFTKEDYKKKLLDLELAPSASVVLLP
protein production: failed

MLLYNKQKKNQNAKGNRILISVTVLGSAGPIRFVAYEDDLVASVIDTALKGYAREGRLPLLGSDFNDFLLYCPMVGPEALSTWDAIGSLGARNFMLCRKPEEKKVEESNGRSDSTINGARKGGSLKAWINKSFNLKVSSH
protein production: failed

MEKANIGFKAGIIFEKLGETGLITIAELARRLNFAADETALAAGWLARENKIYIERRNGLLYIRKELEHHHHHH
protein production: failed

MADLRLEREFAVAPEALFAWVSDGAKLLQWWGPEGLHVPADQHDLDFTRLGPWFSVMVNGEGQRYKVSGQVTHVKPPQSVGFTWGWHDDDDRRGAESHVMFIVEPCAKGARLILDHRELGDDEMSLRHEEGWTSSLRKLAAELALEHHHHHH
protein production: not failed

MLRKKHFSWMLVILILIAVLSFIKLPYYITKPGEATELASLIKVEGGYPEKGSLSLMTVKVGPANPFTYVWAKMHPYYEIVPDESIKEEGESDKEYMKRQLQMMKSSQENAVIAAYQKAGKKVSYSFNGIYASSVVENMPAKGKIEVGDKIISADGKNYQSAEKLIDYISSKKAGDKVTLKIEREEKEKRVTLTLKQFPDEPDRAGIGVSLYTDRNVKVEPDIDFEIENIGGPSAGLMMSLEIYNQLTKPDETKGYDIAGTGTIDVDGKVGPIGGIDQKVVAADKAGKDIFFAPNQNGASNSDYKNAVKTAKDIDSNMKIVPVDTMQDAIDYLNKLKAKQPDSQVLFLYI
protein production: failed

MSLGIIRSILDTDLYKFTTGYAYAKLFPRAYGEFRFIDRNRQGFTEEFAELVRGEIRAMAALSLTRDEKEFLQRELPYLPPIYIDFLDGFRFDPEEVTVSIDAQGHLDIRAQGLLYRVTLWETPILAVISELYYRFIGAKPDWKQVEEVTRSKGELMREHRTTFSIFGMRRRFSLEVEDRVTDILKQYAGESLFGTSNVHLAHKHGLRVSGTHPHEWIQFHGAIYGYKMANYVAMEDWINVYDGDLGTVLTDTYTTDVFMRNFSKKHAMLFTSLRHDSGDPEIFIEKAVRRYEELRVDPKIKYIIFSDSLTPQRAIEIQKLCAGRIKASFGIGTNLTNDVGGGVEPLNIVMKLWKCKMTAKDDWHYCVKLSDVDGKHTGEPEEILLAMNTLGIKPKEGHHHHHH
protein production: not failed
